Where “and” joins values, the source holds several entries; their conditions need not be identical. Identical values can stand only once.
Molecular target: T1, Protein-X (novel PSD) expressed from injected RNA in Xenopus oocytes (human) (UniProt Q5T2T1)
T1 sequence: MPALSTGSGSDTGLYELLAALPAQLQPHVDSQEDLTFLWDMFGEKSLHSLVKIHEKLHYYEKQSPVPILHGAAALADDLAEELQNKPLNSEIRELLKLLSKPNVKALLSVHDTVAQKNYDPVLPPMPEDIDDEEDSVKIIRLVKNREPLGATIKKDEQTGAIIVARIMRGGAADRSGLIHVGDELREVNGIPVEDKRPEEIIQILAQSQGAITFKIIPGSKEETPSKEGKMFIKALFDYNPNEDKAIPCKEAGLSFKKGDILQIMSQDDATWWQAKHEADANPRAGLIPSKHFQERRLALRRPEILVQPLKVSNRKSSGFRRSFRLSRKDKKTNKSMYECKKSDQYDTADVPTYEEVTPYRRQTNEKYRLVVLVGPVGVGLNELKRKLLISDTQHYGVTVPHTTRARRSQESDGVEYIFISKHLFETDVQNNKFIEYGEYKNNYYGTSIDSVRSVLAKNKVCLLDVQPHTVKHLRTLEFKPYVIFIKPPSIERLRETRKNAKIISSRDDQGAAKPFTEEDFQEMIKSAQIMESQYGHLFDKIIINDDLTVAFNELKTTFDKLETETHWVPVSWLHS
Assay: cell-based or functional assay

B1: PJ01087 protein (Protein-Y) expressed from injected RNA in Xenopus oocytes (protein)
chain: MRGYHGDRGSHPRPARFADQQHMDVGPAARAPYLLGSREAFSTEPRFCAPRAGLGHISPEGPLSLSEGPSVGPEGGPAGAGVGGGSSTFPRMYPGQGPFDTCEDCVGHPQGKGAPRLPPTLLDQFEKQLPVQQDGFHTLPYQRGPAGAGPGPAPGTGTAPEPRSESPSRIRHLVHSVQKLFAKSHSLEAPGKRDYNGPKAEGRGGSGGDSYPGPGSGGPHTSHHHHHHHHHHHHQSRHGKRSKSKDRKGDGRHQAKSTGWWSSDDNLDSDSGFLAGGRPPGEPGGPFCLEGPDGSYRDLSFKGRSGGSEGRCLACTGMSMSLDGQSVKRSAWHTMMVSQGRDGYPGAGPGKGLLGPETKAKARTYHYLQVPQDDWGGYPTGGKDGEIPCRRMRSGSYIKAMGDEESGDSDGSPKTSPKAVARRFTTRRSSSVDQARINCCVPPRIHPRSSIPGYSRSLTTGQLSDELNQQLEAVCGSVFGELESQAVDALDLPGCFRMRSHSYLRAIQAGCSQDDDCLPLLATPAAVSGRPGSSFNFRKAPPPIPPGSQAPPRISITAQSSTDSAHESFTAAEGPARRCSSADGLDGPAMGARTLELAPVPPRASPKPPTLIIKTIPGREELRSLARQRKWRPSIGVQVETISDSDTENRSRREFHSIGVQVEEDKRRARFKRSNSVTAGVQADLELEGLAGLATVATEDKALQFGRSFQRHASEPQPGPRAPTYSVFRTVHTQGQWAYREGYPLPYEPPATDGSPGPAPAPTPGPGAGRRDSWIERGSRSLPDSGRASPCPRDGEWFIKMLRAEVEKLEHWCQQMEREAEDYELPEEILEKIRSAVGSTQLLLSQKVQQFFRLCQQSMDPTAFPVPTFQDLAGFWDLLQLSIEDVTLKFLELQQLKANSWKLLEPKEEKKVPPPIPKKPLRGRGVPVKERSLDSVDRQRQEARKRLLAAKRAASFRHSSATESADSIEIYIPEAQTRL
- current response to the ligand stimulation of the NMDA receptor in oocytes, against Protein-X alone: 7 times and 8 times
